Molecular target: the molecule itself
Experiment: cross-linking; 2 ug MtbRho, 0.05% glutaraldehyde, 5 and 10 min at 37 C in T-buffer (KCl instead of K-glutamate), no RNA or ATP; 3.5-8% gradient SDS-PAGE; cross-linked RNAP as marker of ~400 kDa

B1: Mycobacterium tuberculosis Rho (enzyme)
chain: MTDTDLITAGESTDGKPSDAAATDPPDLNADEPAGSLATMVLPELRALANRAGVKGTSGMRKNELIAAIEEIRRQANGAPAVDRSAQEHDKGDRPPSSEAPATQGEQTPTEQIDSQSQQVRPERRSATREAGPSGSGERAGTAADDTDNRQGGQQDAKTEERGTDAGGDQGGDQQASGGQQARGDEDGEARQGRRGRRFRDRRRRGERSGDGAEAELREDDVVQPVAGILDVLDNYAFVRTSGYLPGPHDVYVSMNMVRKNGMRRGDAVTGAVRVPKEGEQPNQRQKFNPLVRLDSINGGSVEDAKKRPEFGKLTPLYPNQRLRLETSTERLTTRVIDLIMPIGKGQRALIVSPPKAGKTTILQDIANAITRNNPECHLMVVLVDERPEEVTDMQRSVKGEVIASTFDRPPSDHTSVAELAIERAKRLVEQGKDVVVLLDSITRLGRAYNNASPASGRILSGGVDSTALYPPKRFLGAARNIEEGGSLTIIATAMVETGSTGDTVIFEEFKGTGNAELKLDRKIAERRVFPAVDVNPSGTRKDELLLSPDEFAIVHKLRRVLSGLDSHQAIDLLMSQLRKTKNNYEFLVQVSKTTPGSMDSD
notes: also called MtbRho; recombinant MtbRho
stoichiometry N: 6

From publication PMC4167861, “Mycobacterium tuberculosis Rho Is an NTPase with Distinct Kinetic Properties and a Novel RNA-Binding Subdomain” (PLoS ONE, 2014)
